Data as given in US20190270826A1 (Janssen / Centocor, published 2019).

How the values were obtained:
human FcRn = target: T1, human FcRn (human, UniProt P55899 24-297; P61769 21-119, limits assumed); assay: AlphaScreen competition, human FcRn (n=1); displaced: biotinylated control mAb B21M WT IgG1 (m27); pH 6.0
T1 construct: GST-tagged
Excerpt: (§1) Measurements were made using an AlphaScreen™ assay (Amplified Luminescent Proximity Homogeneous Assay (ALPHA), PerkinElmer, Wellesley, Mass.), a bead-based luminescent proximity assay. Laser excitation of a donor bead excites oxygen, which if sufficiently close to the acceptor bead generates a cascade of chemiluminescent events, ultimately leading to fluorescence emission at 520-620 nm.

human FcγRI = target: T2, human FcγRI (human, UniProt P12314 16-292, limits assumed); assay: AlphaScreen competition, human FcγRI (n=1); displaced: biotinylated control mAb B21M hIgG1 AlaAla; pH 7.2
T2 construct: GST-tagged, on glutathione acceptor beads; also called FcγRT [sic]
Excerpt: as §1

[1] = target: T3, cyno IL1RAP ECD displayed on HEK-293F cells (pDisplay) (cynomolgus monkey, UniProt P59822 21-367 (rhesus entry)); assay: MSD cell binding, HEK-293F Cyno (clone CB8) cells displaying cyno IL1RAP ECD
T3 sequence: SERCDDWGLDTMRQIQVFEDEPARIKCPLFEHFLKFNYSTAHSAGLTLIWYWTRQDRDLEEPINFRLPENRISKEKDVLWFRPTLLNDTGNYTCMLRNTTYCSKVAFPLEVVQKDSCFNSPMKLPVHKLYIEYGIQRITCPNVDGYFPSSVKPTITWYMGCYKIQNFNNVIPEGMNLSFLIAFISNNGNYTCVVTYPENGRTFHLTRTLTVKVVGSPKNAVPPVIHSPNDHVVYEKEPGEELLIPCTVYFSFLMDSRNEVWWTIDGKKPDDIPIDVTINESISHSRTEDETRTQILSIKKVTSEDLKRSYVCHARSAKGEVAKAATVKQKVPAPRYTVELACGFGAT
Description: (§2) Cells were immobilized and IL1RAP antibody samples were assayed in triplicate. Briefly, expression supernatants of purified IL1RAP antibodies were normalized to 10 μg/mL. 5000 cells per well were plated into a 384 well plate (MA6000, cat. L21XB, MSD) and allowed to adhere for 2 hr. Cells were then blocked with 20% FBS in PBS (Gibco) for 15 mins. Antibody supernatants were then added and left at RT for 1 hr. Cells were washed 3 times with PBS and a ruthenium labeled secondary antibody (Mesoscale Discovery) was then added at 2 μg/mL and incubated for 1 hour at room temperature. A further washing step was then applied and 35 μL per well of 2×MSD Read buffer T (surfactant free) was then added and incubated for 5-30 minutes for detection. Plates were then read using Sector Imager 2400 (MSD). Data was normalized to controls and graphed using GraphPad Prism Version 5. A positive binder was determined to be a hit with a signal 3× greater than parental cell line background.
(§3) The MSD cell binding assay described in Example 4 was used to assess IL1RAP binding.

[2] = target: T4, rat IL1RAP ECD displayed on HEK-293F cells (pDisplay) (rat, UniProt Q63621 21-367); assay: MSD cell binding, HEK-293F Rat clone 1 cells displaying rat IL1RAP ECD
T4 sequence: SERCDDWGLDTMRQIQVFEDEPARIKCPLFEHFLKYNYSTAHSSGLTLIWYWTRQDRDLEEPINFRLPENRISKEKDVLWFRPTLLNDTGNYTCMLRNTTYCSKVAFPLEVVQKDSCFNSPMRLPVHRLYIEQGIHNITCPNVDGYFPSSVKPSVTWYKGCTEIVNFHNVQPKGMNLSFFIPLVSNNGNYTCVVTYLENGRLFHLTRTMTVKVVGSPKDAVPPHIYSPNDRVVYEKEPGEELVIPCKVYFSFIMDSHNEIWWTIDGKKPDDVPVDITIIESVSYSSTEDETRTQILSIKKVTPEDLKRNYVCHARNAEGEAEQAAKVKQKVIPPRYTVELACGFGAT
Description: as §2, §3

IC50 (read off the curve) (human FcRn): ~200 nM | IC50 (read off the curve) (human FcγRI): ~90 nM | EC50 (read off the curve) [1]: ~1 µg/mL | binding result [2]: no binding (tested: 100 µg/mL)
B1: IC3B19 (bispecific antibody, human IgG4 S228P, kappa, lambda, F234A L235A)
heavy 1: EVQLVESGGGLVQPGGSLRLSCAASGFTFNTYAMNWVRQAPGKGLEWVARIRSKYNNYATYYAASVKGRFTISRDDSKNSLYLQMNSLKTEDTAVYYCARHGNFGNSYVSWFAYWGQGTLVTVSSASTKGPSVFPLAPCSRSTSESTAALGCLVKDYFPEPVTVSWNSGALTSGVHTFPAVLQSSGLYSLSSVVTVPSSSLGTKTYTCNVDHKPSNTKVDKRVESKYGPPCPPCPAPEAAGGPSVFLFPPKPKDTLMISRTPEVTCVVVDVSQEDPEVQFNWYVDGVEVHNAKTKPREEQFNSTYRVVSVLTVLHQDWLNGKEYKCKVSNKGLPSSIEKTISKAKGQPREPQVYTLPPSQEEMTKNQVSLTCLVKGFYPSDIAVEWESNGQPENNYKTTPPVLDSDGSFLLYSKLTVDKSRWQEGNVFSCSVMHEALHNHYTQKSLSLSLGK
light 1: QTVVTQEPSLTVSPGGTVTLTCRSSTGAVTTSNYANWVQQKPGQAPRGLIGGTNKRAPGTPARFSGSLLGGKAALTLSGVQPEDEAEYYCALWYSNLWVFGGGTKLTVLGQPKAAPSVTLFPPSSEELQANKATLVCLISDFYPGAVTVAWKADSSPVKAGVETTTPSKQSNNKYAASSYLSLTPEQWKSHRSYSCQVTHEGSTVEKTVAPTECS
heavy 2: not shown
light 2: DIQLTQSPSFLSASVGDRVTITCRASQGISSYLAWYQQKPGKAPKLLIYAASTLQSGVPSRFSGSGSGTEFTLTISSLQPEDFATYYCQQVNSYPLTFGGGTKVEIKRTVAAPSVFIFPPSDEQLKSGTASVVCLLNNFYPREAKVQWKVDNALQSGNSQESVTEQDSKDSTYSLSSTLTLSKADYEKHKVYACEVTHQGLSSPVTKSFNRGEC
notes: IgG4-PAA, Fab arm exchange; also called IAPB57 x CD3B219; IL1RAP x CD3
